The text below walks through data of patent US20040092720A1 (US Dept. of Health and Human Services, published 2004).

B1: Peptide A34 (peptide)
peptide: AAGSHPSRWAGMGRRLLLRSA
notes: alanine-scan variant of the domain I 21-mer
B2: Peptide A40 (peptide)
peptide: AAGSHPSRWAGMGRALLLRSV
notes: as for B1
B3: Peptide A43 (peptide)
peptide: AAGSHPSRWAGAGRRLLLRSV
notes: as for B1
B4: Peptide A47 (peptide)
peptide: AAGSHPARWAGMGRRLLLRSV
notes: as for B1
B5: Peptide A44 (peptide)
peptide: AAGSHPSRWAAMGRRLLLRSV
notes: as for B1
B6: Peptide A38 (peptide)
peptide: AAGSHPSRWAGMGRRLALRSV
notes: as for B1
B7: Peptide A45 (peptide)
peptide: AAGSHPSRAAGMGRRLLLRSV
notes: as for B1
B8: Peptide A42 (peptide)
peptide: AAGSHPSRWAGMARRLLLRSV
notes: as for B1
B9: Peptide A39 (peptide)
peptide: AAGSHPSRWAGMGRRALLRSV
notes: as for B1
B10: Peptide A46 (peptide)
peptide: AAGSHPSAWAGMGRRLLLRSV
notes: as for B1
B11: Peptide A35 (peptide)
peptide: AAGSHPSRWAGMGRRLLLRAV
notes: as for B1
B12: Peptide A37 (peptide)
peptide: AAGSHPSRWAGMGRRLLARSV
notes: as for B1
B13: Peptide A36 (peptide)
peptide: AAGSHPSRWAGMGRRLLLASV
notes: as for B1
B14: Peptide A41 (peptide)
peptide: AAGSHPSRWAGMGARLLLRSV
notes: as for B1

This assay deals with T1, recombinant human IL-6 (human, UniProt P05231 30-212, labeled with radioactive iodine).
T1 construct: Labeled probe in solution, added to wells that carry the synthetic peptides; also called IL-6 ligand; Interleukin-6
Kind of assay: radioiodinated IL-6 on peptide array. The method, then: Synthetic peptide arrays were constructed in 96-well microtiter plates in accordance with the method set forth in WO 91/02714 (Saxinger), and used to test the binding of recombinant human IL-6 that had been labeled with radioactive iodine (radiolabeling by standard methods). After incubating the radiolabeled IL-6 ligand in a well with each synthetic peptide, a washing step was performed to remove unbound label, and the relative level of radioactivity remaining in each well of the plate was evaluated to determine the relative affinity of each peptide for IL-6 ligand.
Consider RSTPSLTTKAVLLVRKFQNS [Peptide B18], for which the Counts/minute bound was found to be 13000 counts/minute. The same measure for PRSTPSLTTKAVLLVRKFQN [Peptide B2]: 7930 counts/minute; for AAGSHP (also called AAGSHP) [Peptide A16]: 1570 counts/minute. Regarding HPSRWAGMGRRLLLRSV [Peptide A21], the Counts/minute bound amounted to 12000 counts/minute.

Regarding PSLTTKAVLLVRKFQNS [Peptide B21], the Counts/minute bound is 13300 counts/minute. On to SHPSRWAGMGRRLLLRSV [Peptide A20], for which the Counts/minute bound is 12000 counts/minute. Consider PRSTPS (also called PRSTPS) [Peptide B16], for which the Counts/minute bound amounted to 1020 counts/minute.

On to AAGSHPSRWAGM [Peptide A10], for which the Counts/minute bound was 1440 counts/minute.

As to AAGSHPSRWAGMG [Peptide A9], the Counts/minute bound was 1470 counts/minute.

Take B1: the Counts/minute bound amounted to 11800 counts/minute. On to B2, for which the Counts/minute bound amounted to 4250 counts/minute. B3: the Counts/minute bound was 13500 counts/minute.

For B4, the Counts/minute bound was determined as 11300 counts/minute.

As for B5, the Counts/minute bound was determined as 11900 counts/minute. Consider B6, for which the Counts/minute bound is 7080 counts/minute. In the case of B7 it was 8040 counts/minute; in that of B8, 12300 counts/minute. Take B9: the Counts/minute bound was 5280 counts/minute. The same measure for B10: 9520 counts/minute; for B11: 11200 counts/minute.

In the case of B12, the Counts/minute bound turned out to be 7730 counts/minute. For B13, the Counts/minute bound is 4900 counts/minute. On to B14, for which the Counts/minute bound was 4460 counts/minute. AGSHPSRWAGMGRRLLLRSV [Peptide A18]: the Counts/minute bound was determined as 13400 counts/minute. The same measure for GMGRRLLLRSV [Peptide A27]: 6820 counts/minute; for PRSTPSLTTKA [Peptide B11]: 1240 counts/minute. For KAVLLVRKFQNS [Peptide B27], the Counts/minute bound was found to be 5600 counts/minute. In the case of RLLLRSV (also called RLLLRSV) [Peptide A31] it was 5460 counts/minute; in that of PSRWAGMGRRLLLRSV [Peptide A22], 11100 counts/minute. Take VLLVRKFQNS [Peptide B29]: the Counts/minute bound was 9100 counts/minute. Take AAGSHPSR [Peptide A14]: the Counts/minute bound amounted to 1350 counts/minute.

In the case of MGRRLLLRSV [Peptide A28], the Counts/minute bound is 7140 counts/minute. In the case of PRSTPSLTTK [Peptide B12] it was 1310 counts/minute; in that of AAGSHPSRWAG [Peptide A11], 1430 counts/minute; in that of AVLLVRKFQNS [Peptide B28], 9070 counts/minute.

On to TPSLTTKAVLLVRKFQNS [Peptide B20], for which the Counts/minute bound was 12900 counts/minute. Take PRSTPSLTT [Peptide B13]: the Counts/minute bound was determined as 1050 counts/minute.

As for PRSTPSLTTKAV [Peptide B10], the Counts/minute bound is 1220 counts/minute. Regarding GSHPSRWAGMGRRLLLRSV [Peptide A19], the Counts/minute bound is 11000 counts/minute.

On to STPSLTTKAVLLVRKFQNS [Peptide B19], for which the Counts/minute bound was determined as 12200 counts/minute. As for AAGSHPSRW [Peptide A13], the Counts/minute bound was 1520 counts/minute. Take GRRLLLRSV [Peptide A29]: the Counts/minute bound came to 5370 counts/minute. For PRSTPSLTTKAVLLVRKFQ [Peptide B3], the Counts/minute bound worked out at 7080 counts/minute. Consider WAGMGRRLLLRSV [Peptide A25], for which the Counts/minute bound stood at 12200 counts/minute.

On to PRSTPSLTTKAVLLVR [Peptide B6], for which the Counts/minute bound was determined as 4360 counts/minute.

As to PRSTPSLTTKAVLLVRK [Peptide B5], the Counts/minute bound was 3960 counts/minute.

As to AAGSHPS (also called AAGSHPS) [Peptide A15], the Counts/minute bound came to 1320 counts/minute. As to PRSTPSLT [Peptide B14], the Counts/minute bound is 930 counts/minute. For PRSTPSLTTKAVLLV [Peptide B7], the Counts/minute bound was 3400 counts/minute. For the molecule PRSTPSLTTKAVL [Peptide B9], the Counts/minute bound was found to be 1400 counts/minute.

For AAGSHPSRWA [Peptide A12], the Counts/minute bound amounted to 1330 counts/minute. Consider AAGSHPSRWAGMGR [Peptide A8], for which the Counts/minute bound is 1480 counts/minute. On to AGMGRRLLLRSV [Peptide A26], for which the Counts/minute bound came to 7620 counts/minute. LLLRSV (also called LLLRSV) [Peptide A32]: the Counts/minute bound came to 1600 counts/minute. For the molecule RWAGMGRRLLLRSV [Peptide A24], the Counts/minute bound worked out at 12100 counts/minute.

With LTTKAVLLVRKFQNS [Peptide B23], the Counts/minute bound stood at 12200 counts/minute.

Consider PRSTPSL (also called PRSTPSL) [Peptide B15], for which the Counts/minute bound is 985 counts/minute. In the case of RRLLLRSV [Peptide A30] it was 5970 counts/minute; in that of LLVRKFQNS [Peptide B30], 7200 counts/minute.

As for AAGSHPSRWAGMGRR [Peptide A7], the Counts/minute bound worked out at 1340 counts/minute. With SRWAGMGRRLLLRSV [Peptide A23], the Counts/minute bound was 8270 counts/minute. On to PRSTPSLTTKAVLLVRKF [Peptide B4], for which the Counts/minute bound was found to be 4690 counts/minute.

With TTKAVLLVRKFQNS [Peptide B24], the Counts/minute bound was 7010 counts/minute.
